Source: patent US20240150494A1
Substitutions are numbered along the chain they refer to.

B1: C11 (VHH, not shown: small tags and cut ends)
VHH: QVQLQESGGGLVQAGGSLRLSCAASGYISRYHTMGWYRQAPGKEREFVAGITWGGSTYYADSVKGRFTISRDNAKNTVYLQMNSLKPEDTAVYYCAVDGGTYADPYHYYWGQGTQVTVSS
B2: D3 (VHH, not shown: small tags and cut ends)
VHH: QVQLQESGGGLVQAGGSLRLSCAASGNISADRYMGWYRQAPGKEREFVAAIGYGGTTYYADSVKGRFTISRDNAKNTVYLQMNSLKPEDTAVYYCAVVDGAHSRHRYWGQGTQVTVSS
B3: E4 (VHH, not shown: small tags and cut ends)
VHH: B1 VHH with G26P, G50A
B4: E2 (VHH, not shown: small tags and cut ends)
VHH: B1 VHH with G26S, E46S, S56L, I69V, Y102R

How the values were obtained:
[1] = target: G2-Rituximab (galactosylated afucosylated glycoform of rituximab) (human); test: flow cytometry of yeast displaying C11, stained with IgG1 G2 (Alexa647) and IgG1 G2F (FITC)
[2] = target: G2-Rituximab (galactosylated afucosylated glycoform of rituximab) (human); test: SPR (Biacore T200), 1:1 Langmuir fit
[3] = target: G2-Rituximab (galactosylated afucosylated glycoform of rituximab) (human); test: SPR, 1:1 Langmuir global kinetic fit, 1024 to 32 nM in 2-fold steps
[4] = target: G2F-Rituximab (galactosylated fucosylated glycoform of rituximab) (human); test: SPR (Biacore T200), 1:1 Langmuir fit
[5] = target: G2-Rituximab (galactosylated afucosylated glycoform of rituximab) (human); test: SPR; drawn table, KD (G2)

Binder	number printed in the lower right quadrant (IgG1 G2 Alexa647 positive, IgG1 G2F FITC negative) [1]	Kd [2] [µM]	Kd [3] [nM]	Kd [4] [nM]	Kd [5] [µM]
B1	4	22.8			
B2		0.323	353	1900	
B3					2.48
B4					4.74
